From patent US20100261660A1 (published 2010)

B1: Round 1 (R1) CD28BP-71 (ligand)
chain: ITPKSVTKRVKETVMLSCDYNTSTEELTSLRIYWQKDSKMVLAILPGKVQVWPEYKNRTITDMNDNPRIVILALRLSDSGTYTCVIQKPVLKGAYKLEHLASVRLMIRADFPVPTINDLGNPSPNIRRLICSTSGGFPRPHLYWLENGEELNATNTTLSQDPETKLYMISSELDFNMTSNHSFLCLVKYGDLTVSQTFYWQESKPTPSANQHLTWTIIIPVSAFGISVIIAVILTCLTCRNAAIRRQRRENEVEMQSCSQSP
notes: also called R1clone71; Clone 71
B2: Round 2 CD28BP-8 (ligand)
chain: ITPKSVTKRVKETVMLSCDYNTSTEELTSLRIYWQKDSKMVLAILPGKVQVWPEYKNRTITDMNDNPRIVILALRLSDSGTYTCVIQKPVLKGAYKLEHLASVRLMIRADFPVPSITDIGHPAPNVKRIRCSASGGFPEPRLAWMEDGEELNAVNTTVDQDLDTELYSVSSELDSNVTNNHSIVCLIKYGELSVSQIFPWSKPKQEPPIDQLPFWVIIPVSGALVLTAVVLYCLACRHVARWKRTRRNEETVGTERLSPIYLGSAQSSG
B3: Round 2 CD28D10-4 (ligand)
chain: SGITPKSVTKRVKETVMLSCDYNTSTEELTSLRIYWQKDSKMVLAILPGKVQVWPEYKNRTITDMNDNPRIVILALRLSDKGTYTCVVQKNENGSFRREHLTSVTLSIRADFPVPSITDIGHPAPNVKRIRCSASGGFPEPRLAWMEDGEELNAVNTTVDQDLDTELYSVSSELDFNVTNNHSIVCLIKYGELSVSQIFPWSKPKQEPPIDQLPFWVIIPVSGALVLTAVVLYCLACRHVARWKRTRRNEETVGTERLSPIYLGSAQSSG
B4: Round 2 CD28A8-6 (ligand)
chain: SGITPKSVTKRVKETVMPSCDYSTSTEELTSLRIYWQKDSKMVLAILPGKVQVWPEYKNRTITDMNDNPRIVILALRLSDSGTYTCVVQKNENGSFRREHLTSVTLSIRADFPVPSITDIGHPAPNVKRIRCSASGGFPEPRLAWMEDGEELNAVNTTVDQDLDTELYSVSSELDFNVTNNHSIVCLIKYGELSVSQIFPWSKPKQEPPIDQLPFWVIIPVSGALVLTAVVLYCLACRHVARWKRTRRNEETVGTERLSPIYLGSAQSSG
B5: Round 2 CD28BP-11 (ligand)
chain: SGITPKSVTKRVKETVMLSCDYNASTEELTSLRIYWQKDSKMVLAILPGKVQVWPEYKNRTITDMNDNPRIVILALRLSDKGTYTCVVQKNENGSFRREHLTSVTLSIRADFPVPSITDIGHPAPNVKRIRCSASGGFPEPRLAWMEDGEELNAVNTTVDQDLDTELYSVSSELDFNVTNNHSIVCLIKYGELSVSQIFPWSKPKQEPPIDQLPFWVIIPVSGALVLTAVVLYCLACRHVARWKRTRRNEETVGTERLSPIYLGSAQSSG
B6: Round 2 CD28BP-17 (ligand)
chain: SGITPKSVTKRVKETVMLSCDYSTSTEELTSLRIYWQKDSKMVLAILPGKVQVWPEYKNRTFPDIINNLSLMILALRLSDKGTYTCVVQKNENGSFRREHLTSVTLSIRADFPVPSITDIGHPAPNVKRIRCSASGDFPEPRLAWMEDGEELNAVNTTVDQDLDTELYSVSSELDFNVTNNHSIVCLIKYGELSVSQIFPWSKPKQEPPIDQLPFWVIIPVSGALVLTVVVLYCLACRHVARWKRTRRNEETVGTERLSPIYLGSAQSSG
B7: Round 2 CD28F3-5 (ligand)
chain: SGITPKSVTKRVKETVMLSCDYNTSTEELTSLRIYWQKDSKMVLAILPGKVQVWPEYKNRTITDMNDNPRIVILALRLSDSGTYTCVVQKNENGSFRREHLTSVTLSIRADFPVPSITDIGHPAPNVKRIRCSASGGFPEPRLAWMEDGEELNAVNTTVDQDLDTELYSVSSELDFNVTNNHSIVCLIKYGELSVSQIFPWSKPKQEPPIDQLPFWVIIPVSGALVLTAVVLYCLACRHVARWKRTRRNEETVGTERLSPIYLGSAQSSG
notes: also called GD28F3-5
B8: Round 2 CD28G1-5 (ligand)
chain: SGITPKSVTKRVKETVMLSCDYSTSTEELTSLRIYWQKDSKMVLAILPGKVQVWPEYKNRTFPDIINNLSLMILALRLSDKGTYTCVVQKNENGSFRREHLTSVTLSIRADFPVSSITDIGHPAPNVKRIRCSASGGFPEPRLAWMEDGEELNAVNTTVDQDLDTELYSVSSELDFNVTNNHSIVCLIKYGELSVSQIFPWSKPKQEPPIDQLPFWVIIPVSGALVLTAVVLYCLACRHVARWKRTRRNEETVGTERLSPIYLGSAQSSG
B9: Round 1 CD28BP-126 (ligand)
chain: ITPKSVTKRVKETVMLSCDYSTSTEELTSLRIYWQKDSKMVLAILPGKVQVWPEYKNRTITDMNDNPRIVILALRLSDSGTYTCVIQKPDLKGAYKLEHLTSVRLMIRADFPVPTINDLGNPSPNIRRLICSTSGGFPRPHLYWLENGEELNATNTTVSQDPGTELYMISSELDFNVTNNHSIVCLIKYGELSVSQIFPWSKPKQEPPIDQLPFWVIIPVSGALVLTAVVLYCLACRHVARWKRTRRNEETVGTERLSPIYLGSAQSSG
notes: also called R1clone 126; Clone 126
B10: Round 2 CD28A4-5* (ligand)
chain: ITPKSVTKRVKETVMLSCDYNTSTEELTSLRIYWQKDSKMVLAILPGKVQVWPEYKNRTITDMNDNPRIVILALRLSDSGTYTCVIQKPVLKGAYKLEHLTSVRLMIRADFPVPTINDLGNPSPNIRRLICSTSGGFPRPHLYWLENGEELNATNTTLSQDPETKLYMISSELDFNVTNNHSIVCLIKYGELSVSQIFPWSKPKQEPPIDQLPFWVIIPVSGALVLTAVVLYCLACRHVARWKRTRRNEETVGTERLSPIYLGSAQSSG
B11: Round 2 CD28A6-1 (ligand)
chain: ITPKSVTKRVKETVMLSCDYNTSTEELTSLRIYWQKDSKMVLAILPGKVQVWPEYKNRTITDMNDNPRIVILALRLSDSGTYTCVIQKPVLKGAYKLEHLASVRLMIRADFPVPTINDLGNPSPNIRRLICSTSGGFPRPHLYWLENGEELNATNTTVSQDPETKLYMISSELDFNVTNNHSIVCLIKYGELSVSQIFPWSKPKQEPPIDQLPFRVIIPVSGALVLTAIVLYCLACRHVARWKRTRRNEETVGTERLSPIYLGSAQSSG
B12: Round 2 CD28A6-9 (ligand)
chain: ITPKSVTKRVKETVMLSCDYNTSTEELTSLRIYWQKDSKMVLAILPGKVQVWPEYKNRTITDMNDNPRIVILALRLSDSGTYTCVIQKPVLKGAYKLEHLASVRLMIRADFPVPTINDLGNPSPNIRRLICSTSGGFPRPHLYWLENGEELNATNTTVSQDPGTELYMISSELDFNVTNNHSIVCLIKYGELSVSQIFPWSKPKQEPPIDQLPFLVIIPVSGALVLTAVVLYCLACRHVARWKRTRRNEETVGTERLSPIYLGSAQSSG
B13: Round 2 CD28A8-4 (ligand)
chain: ITPKSVTKRVKETVMLSCDYNTSTEELTSLRIYWQKDSKMVLAILPGKVQVWPEYKNRTITDMNDNPRIVILALRLSDSGTYTCVIQKPVLKGAYKLEHLTSVRLMIRADFPVPTINDLGNPSPNIRRLICSTSGGFPRPHLYWLENGEELNATNTTVSQDPGTELYMISSELDFNVTNNHSIVCLIKYGELSVSQIFPWSKPKQEPPIDQLPFWVIIPVSGALVLTAVVLYCLACRHVARWKRTRRNEETVGTERLSPIYLGSAQSSG
B14: Round 2 CTLA4 A-H4-5* (ligand)
chain: ITPKSVTKRVKETVMLSCDYSTSTEELTSLRIYWQKDSKMVLAILPGKVQVWPEYKNRTITDMNDNPRIVILALRLSDKGTYTCVVQKNENGSFRREHLTSVTLSIRADFPVPSITDIGHPAPNVKRIRCSASGGFPEPRLYWLENGEELNATNTTVSQDPGTELYMISSELDFNVTNNHSIVCLIKYGELSVSQIFPWSKPKQEPPIDQLPFWVIIPVSGALVLTAVVLYCLACRHVARWKRTRRNEETVGTERLSPIYLGSAQSSG
B15: Round 2 CTLA4 A-C9-9 (ligand)
chain: SGITPKSVTKRVKETVMLSCDYSTSTEELTSLRIYWQKDSKMVLAILPGKVQVWPEYKNRTFPDIINNLSLMILALRLSDRGTYTCVVQKNENGSFRREHLTSVTLSIRADFPVPSITDIGHPAPNVKRIRCSASGGFPEPRLAWMEDGEELNAVNTTVDQDLDTELYSVGSELDFNVTNNHSIVCLIKYGELSVSQIFPWSKPKQEPPIDQLPFWVIIPVSGALVLTAVVLYCLARRHVARWKRTRRNEETVGTERLSPIYLGSAQSSG
B16: Round 1 CTLA4BP-7 (ligand)
chain: VIHVTNEVKEVATLSCGHNVSGEELAQTRIYWQKEKKMVLTMMYGDMNIWPEYKNRTIFDITNNLSIVILALRPSDEGTYECVVLKYEKDAFKREHLAEVMLSVKADFPTPSITDFEIPPSNIRRIICLTSGGFPEPRLAWMKDGEELNAISTTVSQDPGTELYAVSSKLDFNMTTNHSFMCLIKYGHLRVNQTFSWNTPKQEHFPDNLLPSWAITLISVNGIFVICCLTYCFAPRCRERRRNERLRRESVRPV
notes: also called R1-7; R1 CTLA-4BP-7
B17: Round 2 CTLA4BP-5x2-10c (ligand)
chain: VIHVTKEVKEVATLSCGHNVSVEELAQTRIHWQKEKKMVLTMMSGDMNIWPEYKNRTIFDITNNLSIVILALRPSDEGTYECVVLKYEKDAFKREHLAEVMLSVKADFPTPSITDFEIPPSNIRRIICSTSGGFPEPHLSWLENGEELNAINTTVSQDPETELYTVSSKLDFNMTANHSFVCLIKYGHLRVNQTFNWNTPKQEHFPDNLLPSWAITLISVNGIFVICCLTYCFAPRCRERRNETLRRESVRPV
B18: Round 2 CTLA4BP-5x2-11d (ligand)
chain: VIHVTKEVKEVATLSCGHNVSVEELAQTRIHWQKEKKMVLTMMSGDMNIWPEYKNRTIFDITNNLSIVILALRPSDEGTYECVVLKYEKDAFKREHLAEVMLSVKADFPTPSITDFEIPPSNIRRIICSTSGGFPEPHLFWLENGEELNAINTTVSQDPETELYTVSSKLDFNMTTDRSFVCLIKYGHLRVNQTFNWNTPKQEHFPDNLLPSWAITLISANGIFVICCLTYCFAPRCRERKSNETLRRESVRPV

biological target: T1, Soluble CD28-Ig (extracellular domain of human CD28 fused to the Fc portion of human IgG1) (human, UniProt P10747 19-152, biotin-conjugated (NHS-biotin) in the FACS binding assays); assay: competitive FACS on transfected cells, biotin-sCD28-Ig with FITC-sCTLA-4-Ig; grade 0-2 of CD28/CTLA-4 ratio vs WT hB7-1
T1 construct: extracellular domain; bought from R&D Systems; also called sCD28-Ig; CD28-Ig Fc; not shown: Fc portion of human IgG1

Binder	Binding Score
B1	1
B2	2
B3	0
B4	1
B5	2
B6	2
B7	0
B8	1
B9	1
B10	1
B11	1
B12	1
B13	1

biological target: T2, Soluble CTLA-4-Ig (extracellular domain of human CTLA-4 fused to the Fc portion of human IgG1) (human, UniProt P16410 36-161, FITC-conjugated in the FACS binding assays); assay: competitive FACS on transfected cells, FITC-sCTLA-4-Ig with biotin-sCD28-Ig; grade 0-2 of CTLA-4/CD28 ratio vs WT hB7-1
T2 construct: extracellular domain; bought from R&D Systems; also called sCTLA-4-Ig; CTLA-4-Ig Fc; not shown: Fc portion of human IgG1
T2 sequence (P16410 36-161): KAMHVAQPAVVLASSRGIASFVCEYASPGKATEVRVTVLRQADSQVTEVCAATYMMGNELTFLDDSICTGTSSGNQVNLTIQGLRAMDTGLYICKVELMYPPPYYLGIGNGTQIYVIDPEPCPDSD

Binder	Binding Score
B14	1
B15	0
B16	1
B17	2
B18	2
